Our source for the protein production values is a protein production outcome set (Wang et al. 2014).

The series is described as follows: label from the status in PepcDB records.
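Also: failed if final PepcDB status was selected cloned or expressed and not failed if soluble or beyond.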

On to “MRIGQYQLRNRLIAAPMAGITDRPFRTLCYEMGAGLTVSEMMSSNPQVWESDKSRLRMVHIDEPGIRTVQIAGSDPKEMADAARINVESGAQIIDINMGCPAKKVNRKLAGSALLQYPDVVKSILTEVVNAVDVPVTLKIRTGWAPEHRNCEEIAQLAEDCGIQALTIHGRTRACLFNGEAEYDSIRAVKQKVSIPVIANGDITDPLKARAVLDYTGADALMIGRAAQGRPWIFREIQHYLDTGELLPPLPLAEVKRLLCAHVRELHDFYGPAKGYRIARKHVSWYLQEHAPNDQFRRTFNAIEDASEQLEALEAYFENFA”, for which the protein production entry is on record as “failed”.
Turning to “MRIGVYVCHCGLNIAGVIDVSALEEMAGELEDVVLAREVQFLCSDSGQEGIIKDIKDNKIDRVVIAACSPRLHEKTFRHVMEKADLNPYLMEMVNIREQCSWVHADDPQMATQKAFDLIRMGVAKARFLRELSATSSKASRNVLIIGGGVAGIEAALNLAEAGFPVTMVERESTIGGKMALMNEVFPTNDCSICVLAPKMTEVQNHPNITLYTYSEVTDISGSVGKFHVRVTRKPRFVLEDKCKGCVDLCSEVCPVEIENPMNYGIGKSRAIYMPIPQSVPQVVLIDPDHCVGCGLCQLACPAEAVDYEQKPEEIEFEAGAVIVSTGYQLFDASRKKEYGFGKYPDVITNMQLERMLNSAGPTGGRVLVPSTGQPPESVAFIQCVGSRDKTVGNEHCSRVCCMAALKNSQMVKERYPGTDITIHYIDIRAAGEMYEEYYARTQGMGVDFIRGKVAEVYAGEDGRPVVRYENTLESRVEEEAHDLVVLSTGYEPSKAAEGIGRMLNLARRPDRFFASAHPKMRPVDAPVSGVFLAGCASGPKEIQVSIAQGSACASKVMQLLGTGELEADPMGAHVDPDKCIGCRTCVEVCKFGKISIVDKKAVVDEVSCYGCGDCSAACPVGAIQMRNFENEQILAQVRAATAHKSQCPFVVAFLCNWCSYACADLTGMSRIHYPTNIRVIRTMCSARINPEFVLEALKGGADGVLVAGCRMDECHYIHGNFDAKKRMDVLKEIIKEIGLDPKRLRTLWISAAEGERFSNTITEFVKELEEIGPIGSELKREYTATGLEEVAK”, the protein production result was “failed”.
The same measure for “MRIIKNIILISLLFAIILVSLFFGEKWVRTNVKNQAIVYNSQLNPTVMISGSSANNHRFDNLVAILNRQSTTHSLLRVQVNEDNSISYSGRIRPNDSQPYIVIGFQNNSDGYANIKRQAKWLEIAMKFLQKRYHFNHFNAFGHSNGGLDWTIYLEKYFNQKSSTIGTLMTVGSPFNFSEKSESNRTQMLTDLIKNRSKLPRDMTVYSIAGTETYNDDGIVPIESVLSGKYVFQKNVHSYTQITVSGNDSEHSDLPTNPQIVQLIQRDILDGRGQKQSSNPVFNNH”: “failed”; for “MRILLTTLNAKYIHVNLALRYLRACCRDLPHTFILDEFTINDHPEHIAAAIYRHRPDLVAFSCYIWNIEPTLAVAAILKKVRPELTILCGGPEVSFDTAAFLAQNPQIDLVITGEGEIPFRALLEQLAGQQRPPAGNREEPLTASMYRPAGGRPAPGPVPDPAAIPGLAWRRGAETIVNPPAPPLRDLDTIPFPYQEDLDAAGNELSQRTVYYETSRGCPFACGFCLSSTTEGLRYFSLERVRDDLERLLKAGVREIKFVDRTFNAHKKRALAIWEFLLSRRPRARCYFEIAGDRLDEEMLAHLNRVPPDLFQFEIGVQTIDAGVNARCNRRQDWARLAANTRRLREMGSIRLHLDLIAGLPGETYAGVGESFDAVVALKPHEIQLGFLKLLKGTTLRARADEFGYLFLDRPPYQVLASSAITYEEMLRLHAIEGLLKYYGNSHLADHAFAYLAATAFDGSYFAIYEALAAWWEARGLLRRGHSQRDLFNHLASFAIHLARGIATRVTVPPLPGYHDSILEINSHGDTPASGAEHSGCARNLTPAQLDRFYQLLKFDCLCRDRSRNFPGWMPPSPLTEEERSNWMARITTPRSMEKYMPGLVKESPANLRRHGFIELFPCHPERPEEDNPTIVFFYYGPPGSETRVYYLQAPPLVV”: “failed”.
As for “MRILTLGLDGSGEFAFQSHAHTDHFANGRLIFATRPTIFLSHLRNSRYYIPVDFGKKFYIGDFKAKLYPSGHILGSSGIKIWLDEGTLYYTGDVKVKKLRTVERAKLPKADFLIIESTFGLPRFTFPDPRESEKVIIGIVEDLIDRGKVPTFMANPYGKAQEIIKILNVHGYSVSVDREIAKVSKFYMKFGVRLKFEKEGEVKVSSSKGISVSGFGRIKLSNHADFWELLEIVERVNPEKVFTVYGHAEAFAKILNGLGYEAKSIRRNQKLEVWLEHHHHHH”, the entry is “failed”; as for “MRINILSEDTSNKIAAGEVVERPFSVVKELVENSIDAGAKTINIEIENGGRTLIKVLDDGYGIDKDDIEKAFMPHATSKISKLQDIYSINTLGFRGEALPSIASVSKTTLKSRTKENEFGREISISGGSVDYIKDCGTNIGTHIEVRDLFYNVPAREKFLKSTAKEASSISDIVNRLALAHSEISFRLINNGKRVITTYATDNLIDTIRAIYGKKICDNVISFERHTDLVSVHGYVGNAEISRGSRNNQSIFINKRYIKNKLITAAVENAVKSFMMINKFPFFIIFLDIFPEFVDVNVHPTKSEVKFQNERDIFKIIFDTVHEGIRNSLKESFKVEALKEEEDKLFDIKEDVITKNEIKHDDKIDGYIKKDSFPVPVQIPIDLKRPIENYDNSTKENKDRSFDDFREKDIIKETSQEKETYDIITNKKAKFPELRVIGQFNNTYILAESFEELYIIDQHAAHEKILFEKYREDIKNKGVSSQILITPSVVELLPEDFIYYDENKEVFKNAGFVIEYFGDNTVAIKEVPLFLGKPLVKDLFLEIIDNLKNMGSGETSEVKYRSIATAACKSAVKAYHELTHDEMKTLIQDLRFAEDPFNCPHGRPTIVRLTVTDFEKKFKRIQ”, “failed”; as for “MRIQTTFSRKLVLMSLLAVFCGCADVHSSVKGDAMVEQAKGGVLREIKVAETGEGARVVLSADRPLAYTFYKTADPPKAVIDLARTEPGAIASPMDVNSDTIRRIETVRYGEGATAMTRVEVYFTRDTEANATIDASDKGMLVLAVARPVAPAASVAVEAAPAAGQAGESSTGAPVAVAAAPAVAPAPVAVEPQAPIAPVVAPQTGPPVIKAIEAQNGYLVIETSGEIKDFKFFRLAKPDRLVVDISDARLGINSKAIPLNALGVGMARIGAYPDKVRIVLDAAGGTLSPLNVTKGAAGLIVAPADKVVDVPRAAAPPQPSASASQARQPEAVKSAEPAKGLTPAVDAIEFKVLDGTSRITVAVTGACANDKPVKSADGFSVTLRNCILPKKLQRHLDTGAFASVVQKVTPYQVKTKGRSDVKIQVQLRQPASYDVRRDGDLLQVSVRNPEGFEPPVADVPASPTLQDGMDQAAVRQKEPSRETDPLAGVAQSGGTKKAYTGRRVTLEFSDADIRKIFQLIAEVSNLNFLVGDDVTGTISLKLVNVPWDQALDVILENKGLGMQRDGNIVQIRPKSKIQTLADEEQALKRAKERGMELKTEVFDINFAAVGDIVSQFNAVKSERGTISQDARTNRVIVKDIEPALAEMRILLKNLDLPEKQVLIEARIVEATSTFTRDLGVQWGIHSNDSGADIIRSVDAGFGGIVTPPPASGFPAATSSGGAVGISFAKMGSLQVDLRLSAAAVAGLVKIVSTPKVVTLNNKAAKISQGQSIPYQTTSAEGTKTEFVEAALTLEVTPHITADGSVSMKIKASNNSAGTGSPPPINKKEATTELLVKNGETTVIGGIYVDSDTDEDRGVPFLMDIPVLGWLFKSNTKNKTKTELLIFITPKIVS”, “failed”.
The same measure for “MRIRLLGGLEVMSREHRQVRFTTRKTSLLFAALVLGGRRGYRRELLSETFWPGRSNEQARNSLRQALVDIRRSFPAGGDAPVYIDGDQETVALITGPDETDISIFDRKLEAGRTADLAFAADLYRGEVLAGEAIPDELDEWFGPYRSTYQRKALQLVERLSQALSEPGTAEESACEGLAERLLAMDPTVEAAHRALMQIHALRGHENAALRQFEACRALLRKHLQAEPEAETSSLAASLQSRQGSEHRRTTPGPDPVPQPQAISAPAKHHDRPSVAVLPFQNLSGDAEQEYFADGIVEDITIALAQFRHLYVIARNSSFTYKGQAVDIKQVGRELDVRYVVEGSVRRTGDRLRIAGQLIDTSTGTHLWADRFDGTLANVFDLQDQVASSIVGAITPKVEEAEIERAKRKPTESLDAYDYYLRGLAAFDRTVTNRSVIDEALRLFREAIERDPEFAVAHARAARCYATRKSNGWMLNPADETAEATRLARRAVELGWDDAVALTYGGYVIGYVGGDLDDSAACIDRAVSLNPNLAAALGVSSWVKVCLGEPDKAIEHATLAMRLSPLDPRLFAWQFNIGLAHFCAGHYDDAAVWAGKSLRHQLNYPSAMRVMAASQAMAGRLAQARETIARLCLMDPALRLSNLADVLPPFRRPDDRNRYIEALRMAGLPE”: “failed”.
For the sequence “MRISFVGSGKVATHLAKAFAQQHQIIQIMSRNLPHAEKLAHQVGACAIDNYSQIEQEIDLLVIAVSDQSISSVIQAVHVFVPEQLIVHTSGSTDVKILSDIHSNAGVFYPLQTFSFERDIHWSDTPLLIEAEQANSLSILNALANSLTKRVYHYSSTQRLSLHLAAVFACNFSNYCYDMAKQTVDQAQVDFSLLYPLILETAKKATQHDPVQVQTGPAVRHDHNIVELHQNLLLKANRPDLKDIYQRLSQAIIARHHTQP”, the protein production result was “failed”.
As for “MRITTLEELLEALDELFDDGSDLTRRGAQDPWERVFSQPGHPLASDLPDACLVDWTRQGLLPSGDGLTALDLGCGLGRNARWLARQGYAVTGLDLSPYAVGQARERTPGPDIRYLEGDVLRDPIPGGPFDVVYDSGCFHHLPPHRRLSYLHTLGQVLRPGGWFGLCTFAWGRMGSAKSDLELLRQGQLEGGVGYTLDDLREMFGGLDFVTGSLLSELEPASEPVFQMDFLQAALFRRPE”, the entry is “failed”; as for “MRKDEYRATLLEPNVWHIADYRGDSMYLVVGEEKALLVDTGMGEGDLKGFVRSITEKPVEVVLTHAHWDHIMQANQFEKVYLNHRDFQIIELFKINVNYENFLNVKEGDRFDLGGRTLEVIEVPGHTPGSIVLLDRENRLLFSGDSVGAGHTWMHLPGCLPLREYLKSLKKLKETDSFEKIYHGHLTGTQLKPFGPDYLDDLIKAVEGVIDGSLRGEP”, “failed”.
The same measure for “MRKFKISVLLKLGFYCLFLSIGLEMQARKFVHPGILHTTKSIERMRAQIADKEYPAYGSFELLKSHHCSQADYQPFGPFEIISRDGEFRHTKSKMEQDFSAVYQNALMWVLTGEKTHAEKSLELLLGYAGTLKRIPETNDAPLLVGLEGLKIIYATEILRHTYKKMTVVQFNEISRMIREVFLPVMENFYHRKPYTNGNWGPIVTKAYMAAAILWDNEEMYNKAVDFYLHANDNGTIAHYISGDTGQIQESGRDQGHSMLGIGALATVCEIAWQQGDDLYSALDNRLMKGFEYVAKYNLGYNVPFAVWKDVTGKYSNWTEISNKGRGRYMPIFEMTYNHFVIRKGMQMPYTEQVLRQIRPEGYDRDQPAFGSLLFNEAGTKKNYVDLVNPFVDSHRSRWFFFSSACRPFGMVSLSPDTDTEHSWGSGYLYDSKQIRCFSHVHNWQMSGVAVMPTVGEFKGHLGMNAYQSAFTHDGEIAKPGYHKVKLTDYDITAELTSTMRVGFHCYTFPKSDASYILFDTGAFLAHGPTAYSEVWKVSDKEIAGWEMMERTGRRPKDTPVYFYAQLSKPMDKVVSWREGRIESNSNPERISGKNAGMAVRFKTEKDEKVMLKVAISYVSVEQARKNMLTELSGWDFEQVKQSSFSEWNDWLGRIEVEGGSREQQIKLYTDLWHALLGRHVVSDADGHYMDMTSDFPRIRQIPLGEDGKPLYNHHNFDAWWGSHWSLNILWSMAYPEVMDNFCNTMIDMYQNGGLIPRGPSGGNYTYVMIGDPAVSFFASAYNKGIRNYDAELAYEGLRKNAFVGGIRDHAGYEHSKTAYSGGMKYYEEWGYVPDGRKDVEGMHTTGASMTLEYAYQDWCLAQMAKTMGKLQDYEFFMKRSKNYRNLWNPESGYMQPRGEDGNWLPYFDPLELTEKGGFCESNSAIYSHYVPHDMAGLIELYGGADQYVKRLNANFEKSESYGFFRSNKTKEGNWTDYGNQPGTGMAHLFSYAGAPWLTQKWVRKVKAAYCDVTPYGGYRDDEDQGQMGALGVLMAIGLFEVDGGCAEKPFYEITSPLFDKVTIHLDNRYYSGKTFQIITKGNSTDNMYIQNASLNGKKWNKCWFYHEDFIKGGTLELKLGAKPNKKWGVEELPPSFISSK”: “failed”.
